Results: paper PMC9638024, “Functional rewiring of G protein-coupled receptor signaling in human labor” (Cell Reports, 2022)

Biological target: FLAG-tagged EP2, P43116
Assay: PD-PALM (dual-color photoactivated localization microscopy with photoactivatable dyes); HEK 293 cells stably expressing FLAG-EP2 and transfected with HA-OTR; live labelling with anti-FLAG-CAGE 500 and anti-HA-CAGE 552, fixed, TIRF plane, 25 C; search radius 50 nm, Getis Franklin …
Settings: other: PD-PALM (dual-color photoactivated localization microscopy with photoactivatable dyes)

Sequence of FLAG-tagged EP2, P43116 (P43116 whole entry): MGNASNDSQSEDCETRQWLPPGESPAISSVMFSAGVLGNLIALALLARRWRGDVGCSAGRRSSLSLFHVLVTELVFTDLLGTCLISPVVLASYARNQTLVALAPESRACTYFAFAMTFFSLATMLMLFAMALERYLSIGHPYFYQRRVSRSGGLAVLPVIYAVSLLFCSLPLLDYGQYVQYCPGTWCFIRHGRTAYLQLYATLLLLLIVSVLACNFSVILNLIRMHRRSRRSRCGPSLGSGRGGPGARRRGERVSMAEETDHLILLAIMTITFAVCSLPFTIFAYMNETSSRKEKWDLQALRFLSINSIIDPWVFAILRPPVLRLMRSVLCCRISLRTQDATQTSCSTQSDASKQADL

B1: hemagglutinin (HA)-tagged OTR (protein)
chain: MEGALAANWSAEAANASAAPPGAEGNRTAGPPRRNEALARVEVAVLCLILLLALSGNACVLLALRTTRQKHSRLFFFMKHLSIADLVVAVFQVLPQLLWDITFRFYGPDLLCRLVKYLQVVGMFASTYLLLLMSLDRCLAICQPLRSLRRRTDRLAVLATWLGCLVASAPQVHIFSLREVADGVFDCWAVFIQPWGPKAYITWITLAVYIVPVIVLAACYGLISFKIWQNLRLKTAAAAAAEAPEGAAAGDGGRVALARVSSVKLISKAKIRTVKMTFIIVLAFIVCWTPFFFVQMWSVWDANAPKEASAFIIVMLLASLNSCCNPWIYMLFTGHLFHELVQRFLCCSASYLKGRRLGETSASKKSNSSSFVLSHRSSSQRSCSQPSTA
  percent of the heteromers that are heterodimers (basal): heterodimers (∼55% of the heteromers)
